The labels stand for the following.
T1: EsCas13d, nuclease-dead (Eubacterium siraeum, UniProt B0MS50, R295A;H300A;R849A;H854A)
T1 sequence: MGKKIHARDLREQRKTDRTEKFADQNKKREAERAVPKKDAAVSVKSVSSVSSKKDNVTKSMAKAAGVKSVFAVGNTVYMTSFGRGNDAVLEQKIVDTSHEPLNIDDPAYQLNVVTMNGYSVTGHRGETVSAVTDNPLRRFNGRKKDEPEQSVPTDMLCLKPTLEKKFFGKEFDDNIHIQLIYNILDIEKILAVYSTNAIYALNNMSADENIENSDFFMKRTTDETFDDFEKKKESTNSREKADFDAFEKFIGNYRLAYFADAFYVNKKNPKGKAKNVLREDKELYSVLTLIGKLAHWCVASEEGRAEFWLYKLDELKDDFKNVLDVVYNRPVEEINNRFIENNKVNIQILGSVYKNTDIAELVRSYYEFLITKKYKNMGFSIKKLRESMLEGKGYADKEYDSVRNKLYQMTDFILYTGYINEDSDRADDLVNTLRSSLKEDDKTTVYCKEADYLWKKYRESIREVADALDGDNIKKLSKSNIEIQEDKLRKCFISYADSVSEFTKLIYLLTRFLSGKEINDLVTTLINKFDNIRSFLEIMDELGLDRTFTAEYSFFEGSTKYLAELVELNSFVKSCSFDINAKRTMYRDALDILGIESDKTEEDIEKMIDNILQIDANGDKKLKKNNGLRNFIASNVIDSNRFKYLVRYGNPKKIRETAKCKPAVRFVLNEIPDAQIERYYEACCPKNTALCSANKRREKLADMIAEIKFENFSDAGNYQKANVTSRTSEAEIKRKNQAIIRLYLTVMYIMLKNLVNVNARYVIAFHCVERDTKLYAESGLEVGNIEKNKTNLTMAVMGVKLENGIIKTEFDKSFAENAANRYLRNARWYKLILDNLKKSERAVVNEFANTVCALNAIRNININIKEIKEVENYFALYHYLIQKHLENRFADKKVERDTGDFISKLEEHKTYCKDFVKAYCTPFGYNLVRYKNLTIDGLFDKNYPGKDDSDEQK

B1: target 1 insG 3' of 2 (mixed)
RNA 1: CACCCGUGCAAAAAUGCAGGGGUCUAAAACUGAGCGGAUAACCUCUCUAUGG
RNA 2: GGGAAUGGAUCCACAUCUACGAAUUCGUACCAUAGAGAGGUUAUCCGCUCGACCGAGAUCGGAAGAGCACACGU
B2: target 1 insA 3' of 21 (mixed)
RNA 1: CACCCGUGCAAAAAUGCAGGGGUCUAAAACUGAGCGGAUAACCUCUCUAUGG
RNA 2: GGGAAUGGAUCCACAUCUACGAAUUCGUACCAAUAGAGAGGUUAUCCGCUCACCGAGAUCGGAAGAGCACACGU
B3: target 1 insA 3' of 10,insA 3' of 3 (mixed)
RNA 1: CACCCGUGCAAAAAUGCAGGGGUCUAAAACUGAGCGGAUAACCUCUCUAUGG
RNA 2: GGGAAUGGAUCCACAUCUACGAAUUCGUACCAUAGAGAGGUUAAUCCGCUACACCGAGAUCGGAAGAGCACACGU
B4: target 2 MT 5'PFS UUG 3'PFS CAG (mixed)
RNA 1: CACCCGUGCAAAAUUGCAGGGGUCUAAAACCUUCUCCAAAUUGUUUCAUCCU
RNA 2: GGGAAUGGAUCCACAUCUACGAAUUCUUGAGGAUGAAACAAUUUGGAGAAGCAGAGAUCGGAAGAGCACACGU
B5: target 2 MT 5'PFS UUG 3'PFS CAA (mixed)
RNA 1: CACCCGUGCAAAAUUGCAGGGGUCUAAAACCUUCUCCAAAUUGUUUCAUCCU
RNA 2: GGGAAUGGAUCCACAUCUACGAAUUCUUGAGGAUGAAACAAUUUGGAGAAGCAAAGAUCGGAAGAGCACACGU
B6: target 2 MT 5'PFS CAC 3'PFS CUU (mixed)
RNA 1: CACCCGUGCAAAAUUGCAGGGGUCUAAAACCUUCUCCAAAUUGUUUCAUCCU
RNA 2: GGGAAUGGAUCCACAUCUACGAAUUCCACAGGAUGAAACAAUUUGGAGAAGCUUAGAUCGGAAGAGCACACGU
B7: target 2 MT 5'PFS ACA 3'PFS AAA (mixed)
RNA 1: CACCCGUGCAAAAUUGCAGGGGUCUAAAACCUUCUCCAAAUUGUUUCAUCCU
RNA 2: GGGAAUGGAUCCACAUCUACGAAUUCACAAGGAUGAAACAAUUUGGAGAAGAAAAGAUCGGAAGAGCACACGU
B8: target 2 MT 5'PFS CAC 3'PFS CUC (mixed)
RNA 1: CACCCGUGCAAAAUUGCAGGGGUCUAAAACCUUCUCCAAAUUGUUUCAUCCU
RNA 2: GGGAAUGGAUCCACAUCUACGAAUUCCACAGGAUGAAACAAUUUGGAGAAGCUCAGAUCGGAAGAGCACACGU
B9: target 2 MT 5'PFS UUC 3'PFS AAC (mixed)
RNA 1: CACCCGUGCAAAAUUGCAGGGGUCUAAAACCUUCUCCAAAUUGUUUCAUCCU
RNA 2: GGGAAUGGAUCCACAUCUACGAAUUCUUCAGGAUGAAACAAUUUGGAGAAGAACAGAUCGGAAGAGCACACGU
B10: target 2 MT 5'PFS CCC 3'PFS UUA (mixed)
RNA 1: CACCCGUGCAAAAUUGCAGGGGUCUAAAACCUUCUCCAAAUUGUUUCAUCCU
RNA 2: GGGAAUGGAUCCACAUCUACGAAUUCCCCAGGAUGAAACAAUUUGGAGAAGUUAAGAUCGGAAGAGCACACGU
B11: target 2 MT 5'PFS UUG 3'PFS CAU (mixed)
RNA 1: CACCCGUGCAAAAUUGCAGGGGUCUAAAACCUUCUCCAAAUUGUUUCAUCCU
RNA 2: GGGAAUGGAUCCACAUCUACGAAUUCUUGAGGAUGAAACAAUUUGGAGAAGCAUAGAUCGGAAGAGCACACGU
B12: target 2 MT 5'PFS CUG 3'PFS CGC (mixed)
RNA 1: CACCCGUGCAAAAUUGCAGGGGUCUAAAACCUUCUCCAAAUUGUUUCAUCCU
RNA 2: GGGAAUGGAUCCACAUCUACGAAUUCCUGAGGAUGAAACAAUUUGGAGAAGCGCAGAUCGGAAGAGCACACGU
B13: target 2 MT 5'PFS GGA 3'PFS UCC (mixed)
RNA 1: CACCCGUGCAAAAUUGCAGGGGUCUAAAACCUUCUCCAAAUUGUUUCAUCCU
RNA 2: GGGAAUGGAUCCACAUCUACGAAUUCGGAAGGAUGAAACAAUUUGGAGAAGUCCAGAUCGGAAGAGCACACGU
B14: target 2 MT 5'PFS UUG 3'PFS CAC (mixed)
RNA 1: CACCCGUGCAAAAUUGCAGGGGUCUAAAACCUUCUCCAAAUUGUUUCAUCCU
RNA 2: GGGAAUGGAUCCACAUCUACGAAUUCUUGAGGAUGAAACAAUUUGGAGAAGCACAGAUCGGAAGAGCACACGU
B15: target 2 MT 5'PFS GGA 3'PFS UCA (mixed)
RNA 1: CACCCGUGCAAAAUUGCAGGGGUCUAAAACCUUCUCCAAAUUGUUUCAUCCU
RNA 2: GGGAAUGGAUCCACAUCUACGAAUUCGGAAGGAUGAAACAAUUUGGAGAAGUCAAGAUCGGAAGAGCACACGU
B16: target 2 MT 5'PFS CUG 3'PFS AUG (mixed)
RNA 1: CACCCGUGCAAAAUUGCAGGGGUCUAAAACCUUCUCCAAAUUGUUUCAUCCU
RNA 2: GGGAAUGGAUCCACAUCUACGAAUUCCUGAGGAUGAAACAAUUUGGAGAAGAUGAGAUCGGAAGAGCACACGU
B17: target 2 MT 5'PFS GGA 3'PFS UCG (mixed)
RNA 1: CACCCGUGCAAAAUUGCAGGGGUCUAAAACCUUCUCCAAAUUGUUUCAUCCU
RNA 2: GGGAAUGGAUCCACAUCUACGAAUUCGGAAGGAUGAAACAAUUUGGAGAAGUCGAGAUCGGAAGAGCACACGU
B18: target 2 MT 5'PFS CAG 3'PFS CCG (mixed)
RNA 1: CACCCGUGCAAAAUUGCAGGGGUCUAAAACCUUCUCCAAAUUGUUUCAUCCU
RNA 2: GGGAAUGGAUCCACAUCUACGAAUUCCAGAGGAUGAAACAAUUUGGAGAAGCCGAGAUCGGAAGAGCACACGU
B19: target 2 MT 5'PFS GGA 3'PFS UCU (mixed)
RNA 1: CACCCGUGCAAAAUUGCAGGGGUCUAAAACCUUCUCCAAAUUGUUUCAUCCU
RNA 2: GGGAAUGGAUCCACAUCUACGAAUUCGGAAGGAUGAAACAAUUUGGAGAAGUCUAGAUCGGAAGAGCACACGU
B20: target 2 MT 5'PFS AGU 3'PFS AGU (mixed)
RNA 1: CACCCGUGCAAAAUUGCAGGGGUCUAAAACCUUCUCCAAAUUGUUUCAUCCU
RNA 2: GGGAAUGGAUCCACAUCUACGAAUUCAGUAGGAUGAAACAAUUUGGAGAAGAGUAGAUCGGAAGAGCACACGU
B21: target 2 MT 5'PFS ACA 3'PFS AAG (mixed)
RNA 1: CACCCGUGCAAAAUUGCAGGGGUCUAAAACCUUCUCCAAAUUGUUUCAUCCU
RNA 2: GGGAAUGGAUCCACAUCUACGAAUUCACAAGGAUGAAACAAUUUGGAGAAGAAGAGAUCGGAAGAGCACACGU
B22: target 2 MT 5'PFS CUG 3'PFS AUA (mixed)
RNA 1: CACCCGUGCAAAAUUGCAGGGGUCUAAAACCUUCUCCAAAUUGUUUCAUCCU
RNA 2: GGGAAUGGAUCCACAUCUACGAAUUCCUGAGGAUGAAACAAUUUGGAGAAGAUAAGAUCGGAAGAGCACACGU
B23: target 2 MT 5'PFS AGU 3'PFS AGG (mixed)
RNA 1: CACCCGUGCAAAAUUGCAGGGGUCUAAAACCUUCUCCAAAUUGUUUCAUCCU
RNA 2: GGGAAUGGAUCCACAUCUACGAAUUCAGUAGGAUGAAACAAUUUGGAGAAGAGGAGAUCGGAAGAGCACACGU

The target of this series is T1, EsCas13d, nuclease-dead. Kind of series: crRNA (strand 1, pre-loaded); Mg2+; 40 mM Tris-HCl pH 7.5, 150 mM NaCl, 6 mM MgCl2, 1 mM DTT, 0.1% Tween-20, 0.2 mg/ml BSA; 25 C; 10 min per concentration, then washed. The note with it: tags: His6-TwinStrep-SUMO cleaved; N-terminal SNAP kept (SNAP-Surface 488); label: 3' end held by stalled T7 RNA polymerase.
For orientation: Kd means the concentration at which binding is half-saturated. The molecule B1 gave a Kd of 8.6 ± 0.4 nM.
In the case of B2 it was 13.8 ± 1.2 nM; in that of B3, 8.56 ± 0.34 nM.
In the case of B4 it was 11.8 ± 0.9 nM; in that of B5, 9.9 ± 1.4 nM.
Next, B6: 2.31 ± 0.3 nM; B7: 8.3 ± 1.4 nM.
In turn, B8 returned a dissociation constant Kd of 2.9 ± 1 nM.
In the case of B9 it was 15 ± 4 nM; in that of B10, 1.25 ± 0.21 nM.
The molecule B11 yielded a Kd of 9.1 ± 1.2 nM.
Turning to B12, the affinity, expressed as Kd, was 4 ± 0.4 nM. Compared with the last molecule, the Kd is about 2.3-fold lower.
In the case of B13 it was 24.2 ± 2.8 nM.
The molecule B14 registered a Kd of 16.4 ± 2.2 nM.
As for B15, the Kd came to 10.4 ± 1.4 nM.
In the case of B16 it was 3.17 ± 0.32 nM; in that of B17, 17.4 ± 2.7 nM.
B18 displayed a Kd of 11.9 ± 3 nM.
Next, B19: 22 ± 4 nM; B20: 6.8 ± 0.7 nM; B21: 10 ± 5 nM.
In the case of B22 it was 2.63 ± 0.24 nM.
Next, B23: 12.3 ± 1.9 nM.

Source of the values: paper PMC10786891, “Massively parallel profiling of RNA-targeting CRISPR-Cas13d”.
